Target: HIV envelope protein on HIV-infected cells (HIV)
Test: cell-based or functional assay

Q: Which HIV-infected cells killed at 48 hours, against CARCD19 T-cells does the source give for “anti-HIV chimeric antigen receptor comprising scFv derived from PGT128 (PGT128 CAR)” here?
A: 56%
